Source: publication PMC5572259, “The C-terminal Six Amino Acids of the FNT Channel FocA Are Required for Formate Translocation But Not Homopentamer Integrity” (Frontiers in Microbiology, 2017)
“And” between values parts separate entries of the source, which are not always exact repeats. Identical values can stand only once.

B1: N-terminally Strep-tagged FocA (native, full-length formate channel FocA of Escherichia coli) (natural protein, UniProt P0AC23 1-285, looked up)
chain: MKADNPFDLLLPAAMAKVAEEAGVYKATKHPLKTFYLAITAGVFISIAFVFYITATTGTGTMPFGMAKLVGGICFSLGLILCVVCGADLFTSTVLIVVAKASGRITWGQLAKNWLNVYFGNLVGALLFVLLMWLSGEYMTANGQWGLNVLQTADHKVHHTFIEAVCLGILANLMVCLAVWMSYSGRSLMDKAFIMVLPVAMFVASGFEHSIANMFMIPMGIVIRDFASPEFWTAVGSAPENFSHLTVMNFITDNLIPVTIGNIIGGGLLVGLTYWVIYLRENDHH
notes: Formate channel FocA, Escherichia coli, full length (ends with H285; C-terminal residues after R280 are ENDHH); Kept in 2 mM DDM after purification; also called FocA5; native FocA5; source: E. coli BL21(DE3) with pfocA5 (pASK-IBA5focA), membrane fraction solubilised with DDM, purified (Strep-Tactin-Sepharose); not shown: Strep-tag II, N-terminal, kept
B2: FocA5R280 (FocA truncation variant ending with R280, lacking E281, N282, D283, H284 and H285) (domain or fragment, Escherichia coli, UniProt P0AC23 1-280, looked up)
chain: MKADNPFDLLLPAAMAKVAEEAGVYKATKHPLKTFYLAITAGVFISIAFVFYITATTGTGTMPFGMAKLVGGICFSLGLILCVVCGADLFTSTVLIVVAKASGRITWGQLAKNWLNVYFGNLVGALLFVLLMWLSGEYMTANGQWGLNVLQTADHKVHHTFIEAVCLGILANLMVCLAVWMSYSGRSLMDKAFIMVLPVAMFVASGFEHSIANMFMIPMGIVIRDFASPEFWTAVGSAPENFSHLTVMNFITDNLIPVTIGNIIGGGLLVGLTYWVIYLR
notes: FocA, Escherichia coli, stop codon at codon 281 (lacking E281, N282, D283, H284 and H285); also called FocAR280; source: E. coli BL21(DE3) with pfocA5R280, membrane fraction solubilised with DDM, purified (Strep-Tactin-Sepharose); not shown: Strep-tag II, N-terminal, kept
B3: FocA5N282 (FocA truncation variant ending with N282, lacking D283, H284 and H285) (domain or fragment, Escherichia coli, UniProt P0AC23 1-282, looked up)
chain: MKADNPFDLLLPAAMAKVAEEAGVYKATKHPLKTFYLAITAGVFISIAFVFYITATTGTGTMPFGMAKLVGGICFSLGLILCVVCGADLFTSTVLIVVAKASGRITWGQLAKNWLNVYFGNLVGALLFVLLMWLSGEYMTANGQWGLNVLQTADHKVHHTFIEAVCLGILANLMVCLAVWMSYSGRSLMDKAFIMVLPVAMFVASGFEHSIANMFMIPMGIVIRDFASPEFWTAVGSAPENFSHLTVMNFITDNLIPVTIGNIIGGGLLVGLTYWVIYLREN
notes: FocA, Escherichia coli, stop codon at codon 283 (lacking D283, H284 and H285); source: E. coli BL21(DE3) with pfocA5N282, membrane fraction solubilised with DDM, purified (Strep-Tactin-Sepharose); not shown: Strep-tag II, N-terminal, kept
B4: FocA5H284 (FocA truncation variant ending with H284, lacking H285) (domain or fragment, Escherichia coli, UniProt P0AC23 1-284, looked up)
chain: MKADNPFDLLLPAAMAKVAEEAGVYKATKHPLKTFYLAITAGVFISIAFVFYITATTGTGTMPFGMAKLVGGICFSLGLILCVVCGADLFTSTVLIVVAKASGRITWGQLAKNWLNVYFGNLVGALLFVLLMWLSGEYMTANGQWGLNVLQTADHKVHHTFIEAVCLGILANLMVCLAVWMSYSGRSLMDKAFIMVLPVAMFVASGFEHSIANMFMIPMGIVIRDFASPEFWTAVGSAPENFSHLTVMNFITDNLIPVTIGNIIGGGLLVGLTYWVIYLRENDH
notes: FocA, Escherichia coli, stop codon at codon 285 (lacking H285); source: E. coli BL21(DE3) with pfocA5H284, membrane fraction solubilised with DDM, purified (Strep-Tactin-Sepharose); not shown: Strep-tag II, N-terminal, kept
B5: FocA5L279 (FocA truncation variant ending with L279, lacking R280, E281, N282, D283, H284 and H285) (domain or fragment, Escherichia coli, UniProt P0AC23 1-279, looked up)
chain: MKADNPFDLLLPAAMAKVAEEAGVYKATKHPLKTFYLAITAGVFISIAFVFYITATTGTGTMPFGMAKLVGGICFSLGLILCVVCGADLFTSTVLIVVAKASGRITWGQLAKNWLNVYFGNLVGALLFVLLMWLSGEYMTANGQWGLNVLQTADHKVHHTFIEAVCLGILANLMVCLAVWMSYSGRSLMDKAFIMVLPVAMFVASGFEHSIANMFMIPMGIVIRDFASPEFWTAVGSAPENFSHLTVMNFITDNLIPVTIGNIIGGGLLVGLTYWVIYL
notes: FocA, Escherichia coli, stop codon at codon 280 (lacking R280, E281, N282, D283, H284 and H285); also called FocAL279; source: E. coli BL21(DE3) with pfocAL279 (pfocA5L279), membrane fraction solubilised with DDM, purified (Strep-Tactin-Sepharose); not shown: Strep-tag II, N-terminal, kept
B6: FocA5D283 (FocA truncation variant ending with D283, lacking H284 and H285) (domain or fragment, Escherichia coli, UniProt P0AC23 1-283, looked up)
chain: MKADNPFDLLLPAAMAKVAEEAGVYKATKHPLKTFYLAITAGVFISIAFVFYITATTGTGTMPFGMAKLVGGICFSLGLILCVVCGADLFTSTVLIVVAKASGRITWGQLAKNWLNVYFGNLVGALLFVLLMWLSGEYMTANGQWGLNVLQTADHKVHHTFIEAVCLGILANLMVCLAVWMSYSGRSLMDKAFIMVLPVAMFVASGFEHSIANMFMIPMGIVIRDFASPEFWTAVGSAPENFSHLTVMNFITDNLIPVTIGNIIGGGLLVGLTYWVIYLREND
notes: source: E. coli BL21(DE3) with pfocA5D283, membrane fraction solubilised with DDM, purified (Strep-Tactin-Sepharose); not shown: Strep-tag II, N-terminal, kept
B7: FocA5E281 (FocA truncation variant ending with E281, lacking N282, D283, H284 and H285) (domain or fragment, Escherichia coli, UniProt P0AC23 1-281, looked up)
chain: MKADNPFDLLLPAAMAKVAEEAGVYKATKHPLKTFYLAITAGVFISIAFVFYITATTGTGTMPFGMAKLVGGICFSLGLILCVVCGADLFTSTVLIVVAKASGRITWGQLAKNWLNVYFGNLVGALLFVLLMWLSGEYMTANGQWGLNVLQTADHKVHHTFIEAVCLGILANLMVCLAVWMSYSGRSLMDKAFIMVLPVAMFVASGFEHSIANMFMIPMGIVIRDFASPEFWTAVGSAPENFSHLTVMNFITDNLIPVTIGNIIGGGLLVGLTYWVIYLRE
notes: source: E. coli BL21(DE3) with pfocA5E281, membrane fraction solubilised with DDM, purified (Strep-Tactin-Sepharose); not shown: Strep-tag II, N-terminal, kept

Biological target: the molecule itself
Test: native gel or EMSA; blue-native PAGE, 5-13.5% (w/v polyacrylamide) gradient gel, 5 ug of purified DDM-solubilised FocA variant per lane

Row | Protein | stoichiometry N
1 | B1 | 5 and 10
2 | B2 | 10 and 5
3 | B3 | 10 and 5
4 | B4 | 10 and 5
5 | B5 | 5 and 10
6 | B6 | 5
7 | B7 | 5
